The test system of data set [1] is T1, SigL (sigma-54) (Clostridium beijerinckii), ORF:07123114.
T1 sequence: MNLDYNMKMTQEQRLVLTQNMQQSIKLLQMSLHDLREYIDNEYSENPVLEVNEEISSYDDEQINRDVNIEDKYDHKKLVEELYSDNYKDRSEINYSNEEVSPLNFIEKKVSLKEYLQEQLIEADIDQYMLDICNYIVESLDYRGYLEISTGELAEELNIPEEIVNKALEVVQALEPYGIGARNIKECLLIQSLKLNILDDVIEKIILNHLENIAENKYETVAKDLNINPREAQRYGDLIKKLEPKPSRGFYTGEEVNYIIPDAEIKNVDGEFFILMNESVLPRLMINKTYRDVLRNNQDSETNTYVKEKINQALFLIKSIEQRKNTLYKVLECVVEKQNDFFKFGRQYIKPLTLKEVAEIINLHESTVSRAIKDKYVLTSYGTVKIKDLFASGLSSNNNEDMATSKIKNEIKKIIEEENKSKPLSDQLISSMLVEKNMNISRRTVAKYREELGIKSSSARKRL
Kind of data set: EMSA. The settings on record: Not stated in the material; EMSA as in Zhang et al., 2014, with Cy5-labelled DNA. In general terms: In EMSA bound probe runs differently from free probe, usually more slowly.

For data set [2], the system named is T2, AdhR-DBD (Clostridium beijerinckii), ORF:f910ab61.
T2 sequence: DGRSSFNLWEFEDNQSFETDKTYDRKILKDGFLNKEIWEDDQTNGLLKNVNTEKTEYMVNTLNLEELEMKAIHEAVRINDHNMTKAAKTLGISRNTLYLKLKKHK
Kind of data set: EMSA. The settings on record: Not stated in the material; EMSA as in Zhang et al., 2014, with Cy5-labelled DNA.

This is an account of results in paper PMC7017808.

Turning to “AGCCAGTGGCGATAAGAAAGTAAAACACATAATAATTGTTTTTAAAGTGTTTTATTATCCTCAAAAGTGCATAAATGCTACGATTGAACTCATGATCACATTTTTATTTCTGCATCAAAAACTTGGCACGGTTATTGCTTTATATATAAGCATAAGAGAAACAAAACAAAATTATATAAAGTATAAAAACAAAAAGTATTAAAAGGAGAGAGCGAACTTATCGCCACTGGCT (double strand) [adhA1 promoter -24/-12 fragment]”, in data set [1], the binding result is recorded as “binds”. “AGCCAGTGGCGATAAGAACAAAAAACTCGTAATTCCTCAGAAATATTATATTTAAAGGTTTTAAATTAAGTTATTAAATATATATATAATAAGTTATACATAAATTGATTGTTAAGCATATACTCATTTATATAAATAATTTTTAACAAAGATATGTCCTAAAATAATACAGTATAAATTTAATACAGCGTAATATTTTAGGACATGCTTTATAATCTTATCGCCACTGGCT (double strand) [adhA1 promoter UAS fragment]”: the binding entry in data set [2] was “binds”. On to “AGCCAGTGGCGATAAGTTAAATAAATAAACTATCATGAATCAAAAATTAACAATGTCTAAACTTAAAAAATGCAAAAAAATATATGTCCTAAAAGCATACAGTGTAATAAAACTGAACATTTTATTTATAAATTGTATTTTTTTAATACAGTAAATTTGCATTAGAAAAACTATATTGTTAATAATTAGATTATAAAATTTCAATAAATGGGGAGACTTATCGCCACTGGCT (double strand) [adhA2 promoter UAS fragment]”, for which the binding entry in data set [2] is “binds”. For “AGCCAGTGGCGATAAGTTTTAACCTCTCCTTGGATATTTTTTTTACTAGCATTCATCTATTACACTATTATATAAAGCAAGTTTTATACCAATATTATATTTATACATAAATAAATATAAATCATCTCATAATCGCACAATTCATGAATCGAAGTGTGCAACTTTAAAAAAATAGTGTGTAATTTAACTTACACACTGCCTTATCGCCACTGGCT (double strand) [adhA2 promoter -24/-12 fragment]”, the binding result in data set [1] is given as “binds”.
